T1: Cor1, subunit of complex III (S. cerevisiae, UniProt P07256 27-457)
T1 sequence: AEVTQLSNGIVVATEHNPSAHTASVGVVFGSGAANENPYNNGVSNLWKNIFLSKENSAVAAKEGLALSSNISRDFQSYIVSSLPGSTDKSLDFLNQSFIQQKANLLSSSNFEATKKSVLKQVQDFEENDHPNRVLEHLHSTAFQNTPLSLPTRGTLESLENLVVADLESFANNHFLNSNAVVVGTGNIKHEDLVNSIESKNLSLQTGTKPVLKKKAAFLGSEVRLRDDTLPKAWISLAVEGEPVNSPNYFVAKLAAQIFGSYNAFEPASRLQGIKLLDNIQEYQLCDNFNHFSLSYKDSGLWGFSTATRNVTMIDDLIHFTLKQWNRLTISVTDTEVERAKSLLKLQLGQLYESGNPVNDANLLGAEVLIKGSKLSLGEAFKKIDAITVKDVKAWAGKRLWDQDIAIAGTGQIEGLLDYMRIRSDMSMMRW


Experiments:
[1] = target: T1, Cor1, subunit of complex III; assay: cryo-EM structure
[2] = target: wild-type (untethered) III2IV2 respiratory supercomplex with Cox4-Flag (S. cerevisiae) (UniProt P07256); assay: co-IP

binding result [1]	fold decrease of co-purified Nde1 (normalised to purified SC) against III2IV1 SC [2] [fold]	Binder
binds		Cox5a, subunit of complex IV (natural protein) AQTHALSNAAVMDLQSRWENMPSTEQQDIVSKLSERQKLPWAQLTEPEKQAVWYISYGEWGPRRPVLNKGDSSFIAKGVAAGLLFSVGLFAVVRMAGGQDAKTMNKEWQLKSDEYLKSKNANPWGGYSQVQSK
	2	Nde1, external mitochondrial NADH dehydrogenase (enzyme) EDKKVILQKVAPTTGVVAKQSFFKRTGKFTLKALLYSALAGTAYVSYSLYREANPSTQVPQSDTFPNGSKRKTLVILGSGWGSVSLLKNLDTTLYNVVVVSPRNYFLFTPLLPSTPVGTIELKSIVEPVRTIARRSHGEVHYYEAEAYDVDPENKTIKVKSSAKNNDYDLDLKYDYLVVGVGAQPNTFGTPGVYEYSSFLKEISDAQEIRLKIMSSIEKAASLSPKDPERARLLSFVVVGGGPTGVEFAAELRDYVDQDLRKWMPELSKEIKVTLVEALPNILNMFDKYLVDYAQDLFKEEKIDLRLKTMVKKVDATTITAKTGDGDIENIPYGVLVWATGNAPREVSKNLMTKLEEQDSRRGLLIDNKLQLLGAKGSIFAIGDCTFHPGLFPTAQVAHQEGEYLAQYFKKAYKIDQLNWKMTHAKDDSEVARLKNQIVKTQSQIEDFKYNHKGALAYIGSDKAIADLAVGEAKYRLAGSFTFLFWKSAYLAMCLSFRNRVLVAMDWAKVYFLGRDSSI
